# Molecular target: cysteine-free green-absorbing Proteorhodopsin
# Test: cross-linking
substance,measurement,value
cysteine-free green-absorbing Proteorhodopsin (natural protein),stoichiometry N,6
